The target in assay [1] is T1, GST-SITAC-18 PDZ domain 1 (Homo sapiens (Human)), Q9H190.
T1 chain: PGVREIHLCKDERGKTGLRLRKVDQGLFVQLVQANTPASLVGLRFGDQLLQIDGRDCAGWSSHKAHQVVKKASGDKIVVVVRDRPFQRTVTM
Put plainly: G assay titration, PDZ 5 ug/ml.

Assay [2] deals with T2, GST-ZO-1 PDZ domain 1 (Rattus norvegicus (Rat)), A0A0G2.
T2 chain: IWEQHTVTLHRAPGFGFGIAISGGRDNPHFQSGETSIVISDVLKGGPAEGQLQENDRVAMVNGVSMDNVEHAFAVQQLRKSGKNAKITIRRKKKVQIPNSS
Put plainly: G assay titration, PDZ 5 ug/ml.

Assay [3] concerns the target T3, GST-MINT1 PDZ domain 2 (Mus musculus (Mouse)), B2RUJ5.
T3 chain: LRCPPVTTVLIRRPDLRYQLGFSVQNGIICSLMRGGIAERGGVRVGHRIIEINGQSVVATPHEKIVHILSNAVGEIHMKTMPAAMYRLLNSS
Put plainly: G assay titration, PDZ 5 ug/ml.

Assay [4] deals with T4, GST-MINT1 PDZ domains 1, 2, Q02410.
T4 chain: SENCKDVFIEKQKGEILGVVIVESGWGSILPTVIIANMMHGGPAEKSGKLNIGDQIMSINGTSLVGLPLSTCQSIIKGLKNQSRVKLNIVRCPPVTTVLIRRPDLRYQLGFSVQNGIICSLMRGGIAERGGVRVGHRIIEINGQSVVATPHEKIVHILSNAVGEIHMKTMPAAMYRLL
Put plainly: G assay titration, PDZ 5 ug/ml.

Assay [5] has as its target T5, GST-APXL-1 PDZ domain 1 (Homo sapiens (Human)), Q13796.
T5 chain: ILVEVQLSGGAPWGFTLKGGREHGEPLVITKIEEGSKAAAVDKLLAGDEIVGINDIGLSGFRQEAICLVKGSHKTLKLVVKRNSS
Put plainly: G assay titration, PDZ 0.5 ug/ml.

The target of assay [6] is T6, GST-TIP1 PDZ domain 1 (Table 9 insert) (Homo sapiens (Human)), O14907.
T6 chain: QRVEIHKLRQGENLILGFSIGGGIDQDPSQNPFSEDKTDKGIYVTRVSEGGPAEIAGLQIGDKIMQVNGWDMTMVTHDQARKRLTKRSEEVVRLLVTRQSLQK
Put plainly: G assay titration, PDZ 0.5 ug/ml.

The target of assay [7] is T7, GST-MUPP1 PDZ domain 7 (Homo sapiens (Human)), O75970.
T7 chain: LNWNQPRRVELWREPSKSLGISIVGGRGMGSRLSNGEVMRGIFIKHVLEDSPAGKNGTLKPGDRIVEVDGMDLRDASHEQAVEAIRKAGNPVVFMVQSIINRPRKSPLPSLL
Put plainly: G assay titration, PDZ 5 ug/ml.

The target in assay [8] is T6, GST-TIP1 PDZ domain 1 (Table 9 insert) …. Put plainly: G assay titration, PDZ 5 ug/ml.
Assay [9] concerns the target GST-KIAA1634 PDZ domain 4 (Homo sapiens (Human)), Q5TCQ9. Put plainly: G assay titration, PDZ 5 ug/ml.
In assay [10] the target is T8, GST-PTPL1 PDZ domain 2 (Homo sapiens (Human)), Q12923.
T8 chain: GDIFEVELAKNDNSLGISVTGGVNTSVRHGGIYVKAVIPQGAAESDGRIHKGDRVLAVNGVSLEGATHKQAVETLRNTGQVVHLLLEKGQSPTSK
Put plainly: G assay titration, PDZ 5 ug/ml.

Assay [11] has as its target T9, GST-KIAA0807(S) PDZ domain 1 (Homo sapiens (Human)), Q6P0Q8.
T9 chain: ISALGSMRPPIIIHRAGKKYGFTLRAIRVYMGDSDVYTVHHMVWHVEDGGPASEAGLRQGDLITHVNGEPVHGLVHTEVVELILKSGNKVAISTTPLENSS
Put plainly: G assay titration, PDZ 5 ug/ml.

Assay [12] concerns the target GST-Atrophin-1 Interacting Protein PDZ domain 3 (Rattus norvegicus (Rat)), O88382. Put plainly: G assay titration, PDZ 5 ug/ml.
Assay [13] concerns the target T10, GST-HEMBA 1003117 PDZ domain 1 (Homo sapiens (Human)), Q96JH8.
T10 chain: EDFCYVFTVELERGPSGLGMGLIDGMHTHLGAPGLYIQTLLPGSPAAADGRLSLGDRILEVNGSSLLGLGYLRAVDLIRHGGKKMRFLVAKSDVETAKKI
Put plainly: G assay titration, PDZ 5 ug/ml.

In assay [14] the target is T11, GST-MUPP1 PDZ domain 11 (Homo sapiens (Human)), O75970.
T11 chain: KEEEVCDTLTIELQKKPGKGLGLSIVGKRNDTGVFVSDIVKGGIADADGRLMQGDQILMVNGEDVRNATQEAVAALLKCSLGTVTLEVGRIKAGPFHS
Put plainly: G assay titration, PDZ 5 ug/ml.

In assay [15] the target is T12, GST-Connector Enhancer PDZ domain 1 (Homo sapiens (Human)), Q969H4.
T12 chain: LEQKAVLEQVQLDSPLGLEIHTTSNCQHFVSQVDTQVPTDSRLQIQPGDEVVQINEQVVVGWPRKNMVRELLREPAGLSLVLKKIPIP
Put plainly: G assay titration, PDZ 5 ug/ml.

Assay [16] deals with GST-DLG1 PDZ domain 1 (Homo sapiens), Q12959. Put plainly: G assay titration, PDZ 0.5 ug/ml.
The target of assay [17] is GST-Atrophin-1 Interacting Protein PDZ domain 1 (Rattus norvegicus (Rat)), O88382. Put plainly: G assay titration, PDZ 0.5 ug/ml.
Sequence of GST-Atrophin-1 Interacting Protein PDZ domain 1 (Rattus norvegicus (Rat)), O88382 (O88382 408-511): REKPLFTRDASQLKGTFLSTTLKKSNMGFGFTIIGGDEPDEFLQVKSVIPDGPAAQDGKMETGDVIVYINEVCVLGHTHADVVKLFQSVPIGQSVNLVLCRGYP
The target of assay [18] is T13, GST-DLG2 PDZ domain 2 (Homo sapiens (Human)), Q15700.
T13 chain: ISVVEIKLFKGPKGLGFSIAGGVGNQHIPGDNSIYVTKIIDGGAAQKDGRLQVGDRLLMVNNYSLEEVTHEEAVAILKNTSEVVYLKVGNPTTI
Put plainly: G assay titration, PDZ 0.5 ug/ml.

Assay [19] has as its target GST-BAI-1 Associated Protein PDZ domain 3 (Homo sapiens (Human)), Q96QZ7. Put plainly: G assay titration, PDZ 0.5 ug/ml.

The values that follow come from patent US20050282743A1, “Molecular interactions in cells” (Arbor Vita Corporation, priority 2001, published 2005).

Sequence of GST-KIAA1634 PDZ domain 4 (Homo sapiens (Human)), Q5TCQ9 (Q5TCQ9 844-945): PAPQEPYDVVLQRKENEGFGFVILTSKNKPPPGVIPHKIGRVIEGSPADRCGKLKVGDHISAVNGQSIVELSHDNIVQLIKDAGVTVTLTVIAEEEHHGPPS
Sequence of GST-BAI-1 Associated Protein PDZ domain 3 (Homo sapiens (Human)), Q96QZ7 (Q96QZ7 other isoform, or with tags, fused parts or gaps): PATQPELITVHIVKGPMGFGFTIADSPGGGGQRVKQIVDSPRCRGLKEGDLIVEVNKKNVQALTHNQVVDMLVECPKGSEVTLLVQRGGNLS
Sequence of GST-Atrophin-1 Interacting Protein PDZ domain 3 (Rattus norvegicus (Rat)), O88382 (O88382 774-865, tags or fused parts left off): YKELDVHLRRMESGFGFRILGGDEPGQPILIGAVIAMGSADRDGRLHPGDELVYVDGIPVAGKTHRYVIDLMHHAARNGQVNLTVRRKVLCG

The term Kd denotes the free concentration of one partner at which half of the binding sites on the other are occupied at equilibrium, for simple one-to-one binding. Turning to ILNSIQVMRAQMNQIQSVEV (modifications not checked) [ephrin B2], the dissociation constant Kd came out at 4000 nM in [1], 6000 nM in assay [2] and 3000 nM in assay [3].

Turning to PIPAGGCTFSGIFPTLTSPL (modifications not checked) [KIA 1481], the values for the dissociation constant Kd in assay [4] and in assay [5] were 800 nM and 600 nM, respectively.

Molecule VPGALDYAAFSSALYGESDL (modifications not checked) [a-actinin 2] yielded a Kd in [6] of 1000 nM.

On to KTMPAAMYRLLTAQEQPVYI (modifications not checked) [MINT-1], for which the equilibrium dissociation constant (Kd) in [7] is 1500 nM.

For the molecule AWDDSARAAGGQGLHVTAL (modifications not checked) [LPAP], the Kd in assay [8] was 5000 nM.

With VGTLLLERVIFPSVKIATLV (modifications not checked) [AdenoE4 typ9], the Kd in assay [9] was 200 nM; in [10], 200 nM; in [11] it was 200 nM; in [12], 100 nM; in [13], 300 nM; in assay [14], 100 nM. In addition, the dissociation constant Kd came to 100 nM in assay [15]; 100 nM in [16]; 20 nM in [17]; 50 nM in assay [18]; 75 nM in assay [19].
